Results as given in patent US20230340058A1.

B1: SEQ ID NO: 85 (Fc fusion)
chain: DKTHTCPPCPAPEAAGGPSVFLFPPKPKDTLMISRTPEVTCVVVDVSHEDPEVKFNWYVDGVEVHNAKTKPREEQYNSTYRVVSVLTVLHQDWLNGKEYKCKVSNKALAAPIEKTISKAKGQPREPQVYTLPPSRDELTKNQVSLTCLVKGFYPSDIAVEWESNGQPENNYKTTPPVLDSDGSFFLYSKLTVDKSRWQQGNVFSCSVLHEALHSHYTQKSLSLSPGKGGSDSWQEEVIKLCGRELVRAQIAICGKSTGGEGEGGEGEGGSRQDYSALANKCCHVGCTKRSLAQFC
B2: SEQ ID NO: 83 (Fc fusion)
chain: DKTHTCPPCPAPEAAGGPSVFLFPPKPKDTLMISRTPEVTCVVVDVSHEDPEVKFNWYVDGVEVHNAKTKPREEQYNSTYRVVSVLTVLHQDWLNGKEYKCKVSNKALAAPIEKTISKAKGQPREPQVYTLPPSRDELTKNQVSLTCLVKGFYPSDIAVEWESNGQPENNYKTTPPVLDSDGSFFLYSKLTVDKSRWQQGNVFSCSVLHEALHSHYTQKSLSLSPGGGSDSWQEEVIKLCGRELVRAQIAICGKSTGGEGEGGEGEGGSRQLYSALANKCCHVGCTKRSLARFC
B3: SEQ ID NO: 84 (Fc fusion)
chain: DKTHTCPPCPAPEAAGGPSVFLFPPKPKDTLMISRTPEVTCVVVDVSHEDPEVKFNWYVDGVEVHNAKTKPREEQYNSTYRVVSVLTVLHQDWLNGKEYKCKVSNKALAAPIEKTISKAKGQPREPQVYTLPPSRDELTKNQVSLTCLVKGFYPSDIAVEWESNGQPENNYKTTPPVLDSDGSFFLYSKLTVDKSRWQQGNVFSCSVLHEALHSHYTQKSLSLSPGGGSDSWQEEVIKLCGRELVRAQIAICGKSTGGEGEGGEGEGGSRQLYSALANKCCHVGCTKRSLAQFC

biological target: human RXFP1, full-length (human), Q9HBX9; assay: cell-based or functional assay
Sequence (Q9HBX9 whole entry): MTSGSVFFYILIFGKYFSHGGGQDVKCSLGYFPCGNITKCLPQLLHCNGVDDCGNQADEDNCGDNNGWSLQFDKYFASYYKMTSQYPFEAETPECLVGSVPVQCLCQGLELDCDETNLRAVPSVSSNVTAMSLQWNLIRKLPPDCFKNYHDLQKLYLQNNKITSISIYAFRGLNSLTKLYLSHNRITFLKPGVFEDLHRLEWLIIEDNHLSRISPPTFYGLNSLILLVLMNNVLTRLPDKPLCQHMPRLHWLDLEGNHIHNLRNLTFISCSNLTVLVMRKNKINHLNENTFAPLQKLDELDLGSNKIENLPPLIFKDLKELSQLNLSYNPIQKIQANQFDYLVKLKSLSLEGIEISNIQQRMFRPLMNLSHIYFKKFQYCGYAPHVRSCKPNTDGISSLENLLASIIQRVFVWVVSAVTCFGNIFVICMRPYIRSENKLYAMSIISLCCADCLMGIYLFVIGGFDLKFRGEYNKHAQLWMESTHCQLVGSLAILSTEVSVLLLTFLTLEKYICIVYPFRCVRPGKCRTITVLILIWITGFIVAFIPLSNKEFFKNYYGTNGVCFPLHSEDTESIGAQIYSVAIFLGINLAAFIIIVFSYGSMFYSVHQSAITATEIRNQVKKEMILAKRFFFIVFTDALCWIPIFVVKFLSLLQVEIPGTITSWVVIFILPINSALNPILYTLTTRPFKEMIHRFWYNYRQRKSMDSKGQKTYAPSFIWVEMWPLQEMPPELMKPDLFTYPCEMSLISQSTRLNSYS

Compared with B1, B2 is 5.8-fold lower in Potency Assay EC50 (nM), transient hRXFP1 cAMP assay: 54.4 nM for the first, 9.3 nM for the second.

B3 showed a Potency Assay EC50 (nM), transient hRXFP1 cAMP assay of 41.9 nM.
